In the Human Domainome abundance scans (Beltran et al. 2025):
± gives the uncertainty stated by the source.

B1: Transitional endoplasmic reticulum ATPase, residues 26 to 106; numbered along this chain, P55072 (parent)
chain: LIVDEAINEDNSVVSLSQPKMDELQLFRGDTVLLKGKKRREAVCIVLSDDTCSDEKIRMNRVVRNNLRVRLGDVISIQPCP

Variants of: B1
Test: abundance fitness (aPCA) (normalised: wild type 0, dead -1); higher = more abundant; growth selection in yeast, the domain comes from the species named
Conditions: Homo sapiens

Variant	abundance fitness
M59W	-0.99 ± 0.14
M59V	-0.166 ± 0.11
M59S	-0.817 ± 0.13
M59R	-1.08 ± 0.13
M59T	-0.275 ± 0.1
I75L	-0.155 ± 0.054
I75W	-1.04 ± 0.37
I75T	-0.495 ± 0.14
I75N	-0.842 ± 0.31
I75H	-0.695 ± 0.14
I75M	-0.2 ± 0.11
I75C	-0.265 ± 0.12
I75V	-0.039 ± 0.069
I75F	-0.859 ± 0.15
I75Y	-0.916 ± 0.31
I75A	-0.246 ± 0.088
I75D	-0.863 ± 0.41
I75Q	-1.11 ± 0.28
I75E	-0.633 ± 0.19
I75G	-0.944 ± 0.19
I75K	-1.05 ± 0.3
L71G	0.009 ± 0.053
L71Q	-0.028 ± 0.076
L71Y	-0.391 ± 0.34

Variant	abundance fitness
L71F	-0.184 ± 0.25
L71S	-0.004 ± 0.073
L71R	-0.102 ± 0.055
L71D	-0.086 ± 0.15
L71N	0.103 ± 0.14
L71V	-0.048 ± 0.058
L71C	-0.112 ± 0.11
L71T	0.083 ± 0.097
L71A	0.114 ± 0.066
L71I	0.045 ± 0.13
L71K	-0.026 ± 0.091
L71E	0.07 ± 0.069
L71P	-0.083 ± 0.061
L71M	-0.002 ± 0.12
R61M	-0.178 ± 0.19
R61A	0.059 ± 0.067
R61H	-0.157 ± 0.18
R61G	-0.025 ± 0.061
R61D	-0.024 ± 0.14
R61N	-0.091 ± 0.15
R61K	0.079 ± 0.095
R61P	-0.003 ± 0.15
R61I	-0.026 ± 0.15
R61S	-0.024 ± 0.092

Variant	abundance fitness
R61Y	-0.059 ± 0.21
R61C	0.005 ± 0.16
R61F	-0.158 ± 0.14
R61Q	-0.036 ± 0.18
R61V	-0.005 ± 0.059
R61T	-0.009 ± 0.092
R61L	-0.006 ± 0.062
R61W	-0.119 ± 0.079
D73I	-0.655 ± 0.24
D73R	-0.715 ± 0.084
D73F	-0.861 ± 0.18
D73C	-0.343 ± 0.15
D73P	-0.915 ± 0.19
D73T	-0.252 ± 0.097
D73K	-0.309 ± 0.14
D73W	-0.412 ± 0.13
D73V	-0.949 ± 0.093
D73L	-0.922 ± 0.13
D73S	-0.012 ± 0.07
D73M	-0.391 ± 0.11
D73H	-0.135 ± 0.14
D73Q	0.004 ± 0.096
D73N	-0.102 ± 0.22
G72H	-0.257 ± 0.16

Variant	abundance fitness
G72Y	-0.256 ± 0.23
G72W	-0.363 ± 0.073
G72F	-0.336 ± 0.22
G72S	-0.278 ± 0.082
G72D	-0.187 ± 0.15
G72P	-0.891 ± 0.21
G72L	-0.42 ± 0.072
G72E	-0.23 ± 0.088
G72Q	-0.424 ± 0.13
G72M	-0.392 ± 0.12
G72R	-0.177 ± 0.051
G72K	-0.317 ± 0.097
G72T	-0.037 ± 0.1
G72N	-0.043 ± 0.28
G72A	-0.271 ± 0.061
G72C	-0.453 ± 0.2
R68E	0.047 ± 0.084
R68H	-0.009 ± 0.13
R68S	0.068 ± 0.073
R68K	0.122 ± 0.12
R68L	-0.033 ± 0.057
R68I	-0.588 ± 0.21
R68C	-0.114 ± 0.14
R68W	-0.169 ± 0.097

Variant	abundance fitness
R68T	-0.14 ± 0.09
R68V	-0.124 ± 0.063
R68M	0.01 ± 0.087
R68Y	0.274 ± 0.23
R68Q	-0.119 ± 0.1
R68D	-0.064 ± 0.12
R68P	-0.891 ± 0.17
R68N	-0.123 ± 0.14
R68F	-0.165 ± 0.14
I77L	0.013 ± 0.057
I77A	-0.309 ± 0.075
I77M	-0.097 ± 0.078
I77R	-0.91 ± 0.12
I77S	-0.914 ± 0.19
I77W	-0.856 ± 0.27
I77C	-0.074 ± 0.2
I77K	-1.01 ± 0.38
I77G	-0.817 ± 0.093
I77F	-0.259 ± 0.11
I77E	-0.85 ± 0.22
I77H	-0.842 ± 0.47
I77T	-0.672 ± 0.17
L67F	-0.411 ± 0.14
L67T	-0.693 ± 0.25

Variant	abundance fitness
L67D	-0.823 ± 0.25
L67W	-0.976 ± 0.17
L67N	-0.757 ± 0.2
L67C	-0.175 ± 0.084
L67G	-0.896 ± 0.1
L67E	-0.853 ± 0.15
L67A	-0.601 ± 0.074
L67M	-0.247 ± 0.073
L67S	-0.893 ± 0.12
L67I	-0.057 ± 0.083
L67P	-0.789 ± 0.14
L67V	-0.35 ± 0.058
L67R	-0.956 ± 0.12
N60Y	-0.811 ± 0.39
N60T	-0.019 ± 0.08
N60H	-0.045 ± 0.19
N60S	0.085 ± 0.074
N60E	-0.266 ± 0.11
N60L	-0.756 ± 0.13
N60C	-0.182 ± 0.16
N60D	-0.077 ± 0.092
N60F	-0.889 ± 0.16
N60Q	-0.307 ± 0.1
N60M	-0.552 ± 0.16

Variant	abundance fitness
N60I	-0.681 ± 0.32
N60A	-0.009 ± 0.075
N60G	-0.065 ± 0.082
N60V	-0.418 ± 0.071
N60W	-0.899 ± 0.24
N60R	-0.325 ± 0.073
N60P	-0.046 ± 0.079
S76P	-0.467 ± 0.16
S76M	-0.012 ± 0.087
S76E	-0.096 ± 0.088
S76R	-0.046 ± 0.044
S76F	-0.043 ± 0.11
S76Y	-0.107 ± 0.12
S76G	-0.021 ± 0.043
S76W	-0.207 ± 0.082
S76A	-0.036 ± 0.073
S76L	-0.112 ± 0.06
S76C	-0.015 ± 0.096
S76I	-0.173 ± 0.13
S76H	0 ± 0.17
S76Q	0.057 ± 0.11
S76T	-0.146 ± 0.091
S76V	0.023 ± 0.064
